The target of test [1] is GFOGER peptide, synthetic triple helical collagen related peptide GPC[GPP]5GFOGER[GPP]5GPCG. Put plainly: dynamic force spectroscopy (AFM); as a1, repeated over a range of loading rates; most dominant peak force against loading rate fitted with the Bell-Evans model; koff at zero applied force. Particulars: both partners purified.
Test [2] addresses GPP peptide, synthetic triple helical control peptide GPC[GPP]10GPCG. The test is described as above. Particulars: both partners purified.

B1: I-domain from integrin alpha 2 beta 1, locked open I-domain cleaved of its GST tag (CLOI) (domain or fragment)
chain: CPSLIDVVVVCDESNSIYPWDAVKNFLEKFVQGLDIGPTKTQVGLIQYANNPRVVFNLNTYKTKEEMIVATSQTSQYGGDLTNTFGAIQYARKYAYSAASGGRRSATKVMVVVTDGESHDGSMLKAVIDQCNHDNILRFGIAVLGYLNRNALDTKNLIKEIKAIASIPTERYFFNVSDEAALLEKAGTLGEQIFSIEG
Broadly, the koff is the first-order rate constant of dissociation. For the molecule B1, the koff in test [1] stood at 0.44 s⁻¹; in test [2], 11 s⁻¹.

For the origin of these results see PMC3588017, “Measurement of the Interaction Between Recombinant I-domain from Integrin alpha 2 beta 1 and a Triple Helical Collagen Peptide with the GFOGER Binding Motif Using Molecular Force Spectroscopy” (International Journal of Molecular Sciences, 2013).
